PMC10355216, “The C-terminal tail of CSNAP attenuates the CSN complex” (Life Science Alliance, 2023)

What was measured:
Assay in all cases: peptide or protein array; peptides synthesized on a microarray, incubated with recombinant CSN, probed with anti-CSN3 and HRP-conjugated secondary antibody; spot intensity normalized to C-CSNAP (A1), averaged from six arrays
[1] = target: C-CSNAP peptide with a D-amino acid at Asp55 (peptide array)
[2] = target: C-CSNAP peptide with a D-amino acid at Asp53 (peptide array)
[3] = target: C-CSNAP peptide with a D-amino acid at Asp52 (peptide array)
[4] = target: C-CSNAP peptide with a D-amino acid at Asp54 (peptide array)
[5] = target: C-CSNAP peptide with a D-amino acid at Leu50 (peptide array)
[6] = target: C-CSNAP peptide with a D-amino acid at Phe51 (peptide array)

Measured: increase of the array signal over the original 16AA C-CSNAP peptide

recombinant COP9 signalosome complex (CSN) (from UniProt Q13098 1-491; Q9UNS2 1-423; Q92905 1-334; Q99627 2-209; Q8WXC6 1-57)
> 20%: all assays above
